Experimental data published in PMC7897507.

Key:
[1] = test system: EcSSB WT (Escherichia coli); test: optical tweezers; details: 12 pN, 50 mM Na+, 10 mM HEPES pH 7.5, room temperature, ssDNA at 12 pN unless stated, Mg2+ buffer adds 4 mM Mg2+, AFM 10 mM Na+, 10 mM Mg2+
[2] = test system: EcSSB H55Y (Escherichia coli); test: optical tweezers; details: 5 nM monomeric H55Y, k-b/kb, 12 pN, 50 mM Na+, 10 mM HEPES pH 7.5, room temperature, ssDNA at 12 pN unless stated, Mg2+ buffer adds 4 mM Mg2+, AFM 10 mM Na+, 10 mM Mg2+

8.1 knt ssDNA (pBACgus11) gave a Kd ([1]; EcSSB8 mode, fit of equilibrium fractions (Fig. 2C)) of 0.04 nM, a Kd ([1]; single-domain unwrapped EcSSB8 mode, from k-b/kb) of 0.08 nM and a Kd [2] of 0.1 nM.
